Values of other authors as cited in paper PMC7500696.

Molecular target: tropomyosin N-terminal peptide N-terminal fragment (UniProt P09493)
Assay: CD

Substance: Leiomodin-2 Lmod2s1 Lmod2s1 (from UniProt Q3UHZ5)
- Kd: 1 µM
